These results are taken from the supplement of paper PMC9112550, “Optimization of the antimicrobial peptide Bac7 by deep mutational scanning” (BMC Biology, 2022).

This data set concerns Escherichia coli TOP10. Kind of data set: shrunken log2 fold change of peptide-encoding DNA abundance (4.5 h post-induction vs induction); higher = less antimicrobial activity (less host growth inhibition). The following applies: time post-induction: 4.5 h; library: site-saturation at positions 5, 18, 19, 20.
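Also: peptides expressed intracellularly from a pBAD plasmid library in pooled LB shake-flask culture, induced with 0.3% L-arabinose, DNA abundance read by NGS, three biological replicates, DESeq2 with apeglm shrinkage.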

Consider RRIRHRPPRLPRPRPRPRESPRP, for which the “shrunken log2 fold change” value was -0.0496.

As to RRIRQRPPRLPRPRPRPYFRPRP, the “shrunken log2 fold change” value is -0.368. The result for RRIRDRPPRLPRPRPRPNFDPRP reads -0.0173.

For RRIRNRPPRLPRPRPRPMVNPRP, the “shrunken log2 fold change” value is -0.00142. For RRIRRRPPRLPRPRPRPPEWPRP the value was 0.539. The result for RRIRIRPPRLPRPRPRPACFPRP reads 0.199; that for RRIRYRPPRLPRPRPRPLRLPRP, 0.077. Turning to RRIRKRPPRLPRPRPRPLDCPRP, the “shrunken log2 fold change” value is -0.0764. The result for RRIRFRPPRLPRPRPRPIMPPRP reads -0.127; that for RRIRPRPPRLPRPRPRPYGTPRP, -0.732; that for RRIRSRPPRLPRPRPRPTSMPRP, -0.187. RRIRSRPPRLPRPRPRPQPPPRP: the “shrunken log2 fold change” value was determined as 0.489. The result for RRIRLRPPRLPRPRPRPSTDPRP reads -0.356; that for RRIRRRPPRLPRPRPRPSGSPRP, -0.0977; that for RRIRGRPPRLPRPRPRPFWAPRP, 0.325.

Turning to RRIRIRPPRLPRPRPRPDVGPRP, the “shrunken log2 fold change” value was -0.284.

As for RRIRERPPRLPRPRPRPWILPRP, the “shrunken log2 fold change” value is 0.0494.

RRIRKRPPRLPRPRPRPELAPRP: the “shrunken log2 fold change” value came to 2.83. The result for RRIRHRPPRLPRPRPRPFYDPRP reads -0.837.

Consider RRIRARPPRLPRPRPRPAILPRP, for which the “shrunken log2 fold change” value is -0.087. For RRIRQRPPRLPRPRPRPKLHPRP the value was -0.201; for RRIRKRPPRLPRPRPRPSGLPRP, -0.0301.

With RRIRGRPPRLPRPRPRPFLTPRP, the “shrunken log2 fold change” value stood at 0.0427. The result for RRIRARPPRLPRPRPRPDVAPRP reads 1.35; that for RRIRTRPPRLPRPRPRPWCQPRP, -0.134. The result for RRIRVRPPRLPRPRPRPQRAPRP reads 0.348; that for RRIRYRPPRLPRPRPRPREFPRP, 0.163. The result for RRIRHRPPRLPRPRPRPWAMPRP reads -0.00884; that for RRIRRRPPRLPRPRPRPNLEPRP, 0.442; that for RRIRDRPPRLPRPRPRPWPNPRP, 0.0619.

Regarding RRIRYRPPRLPRPRPRPKNSPRP, the “shrunken log2 fold change” value was -1.22.

Turning to RRIRWRPPRLPRPRPRPYVHPRP, the “shrunken log2 fold change” value is -1.18. Consider RRIRMRPPRLPRPRPRPMRKPRP, for which the “shrunken log2 fold change” value turned out to be 0.361. For RRIRLRPPRLPRPRPRPCPLPRP the value was -0.333. The result for RRIRPRPPRLPRPRPRPCGAPRP reads 0.206. For the sequence RRIRVRPPRLPRPRPRPHIEPRP, the “shrunken log2 fold change” value is -0.763.

For the sequence RRIRTRPPRLPRPRPRPRNHPRP, the “shrunken log2 fold change” value was -0.345. Regarding RRIRDRPPRLPRPRPRPAKKPRP, the “shrunken log2 fold change” value was -0.00565. For RRIRVRPPRLPRPRPRPDPSPRP the value was 0.226; for RRIRARPPRLPRPRPRPVDSPRP, -0.0786; for RRIRFRPPRLPRPRPRPFQYPRP, -0.127.

For the sequence RRIRVRPPRLPRPRPRPQDWPRP, the “shrunken log2 fold change” value is -0.132. For RRIRTRPPRLPRPRPRPQFTPRP the value was -0.0397; for RRIRMRPPRLPRPRPRPRHKPRP, 0.402. Regarding RRIRDRPPRLPRPRPRPEACPRP, the “shrunken log2 fold change” value stood at 0.644. For RRIRYRPPRLPRPRPRPEPAPRP the value was 0.168; for RRIRVRPPRLPRPRPRPYGFPRP, -0.222. For RRIRDRPPRLPRPRPRPLICPRP the value was 0.347; for RRIRLRPPRLPRPRPRPEHDPRP, 0.0235. For RRIRDRPPRLPRPRPRPKAAPRP the value was 0.0214; for RRIRARPPRLPRPRPRPKLNPRP, 0.16. Turning to RRIRFRPPRLPRPRPRPLVHPRP, the “shrunken log2 fold change” value was -0.298. For RRIRVRPPRLPRPRPRPTLHPRP the value was 0.195; for RRIRIRPPRLPRPRPRPVKVPRP, -0.00567.

As to RRIRKRPPRLPRPRPRPLVYPRP, the “shrunken log2 fold change” value is -0.23. The result for RRIRGRPPRLPRPRPRPWIWPRP reads 0.236. Regarding RRIRGRPPRLPRPRPRPCADPRP, the “shrunken log2 fold change” value amounted to 1.48. The result for RRIRVRPPRLPRPRPRPWAQPRP reads -0.365; that for RRIRERPPRLPRPRPRPFEQPRP, -0.126. RRIRQRPPRLPRPRPRPMRWPRP: the “shrunken log2 fold change” value turned out to be 0.0431.

As to RRIRPRPPRLPRPRPRPKWDPRP, the “shrunken log2 fold change” value came out at 0.319. The result for RRIRKRPPRLPRPRPRPVNHPRP reads -0.0443. For RRIRPRPPRLPRPRPRPWDWPRP the value was 0.00784. For RRIRGRPPRLPRPRPRPWTEPRP the value was 0.128; for RRIRSRPPRLPRPRPRPALAPRP, 0.419; for RRIRQRPPRLPRPRPRPERLPRP, -0.0028.

In the case of RRIRHRPPRLPRPRPRPQDHPRP, the “shrunken log2 fold change” value was -0.215. The result for RRIRARPPRLPRPRPRPPDNPRP reads 0.576. Consider RRIRDRPPRLPRPRPRPSQPPRP, for which the “shrunken log2 fold change” value was -0.0206.

On to RRIRWRPPRLPRPRPRPGAYPRP, for which the “shrunken log2 fold change” value was 0.109. For RRIRIRPPRLPRPRPRPKTCPRP the value was 0.179; for RRIRTRPPRLPRPRPRPSHEPRP, -0.299. The result for RRIRSRPPRLPRPRPRPALKPRP reads 0.161; that for RRIRRRPPRLPRPRPRPHYWPRP, 0.0315; that for RRIRGRPPRLPRPRPRPTYPPRP, 0.0703.

In the case of RRIRQRPPRLPRPRPRPFKDPRP, the “shrunken log2 fold change” value was -0.126. For RRIRSRPPRLPRPRPRPNKHPRP the value was -0.507; for RRIRDRPPRLPRPRPRPAMDPRP, 0.335.

Take RRIRCRPPRLPRPRPRPCSGPRP: the “shrunken log2 fold change” value is -0.513.

Consider RRIRDRPPRLPRPRPRPRHMPRP, for which the “shrunken log2 fold change” value worked out at 0.0599.

Consider RRIRFRPPRLPRPRPRPEPDPRP, for which the “shrunken log2 fold change” value is -0.0658. For RRIRLRPPRLPRPRPRPFWFPRP the value was 0.0715; for RRIRTRPPRLPRPRPRPVQIPRP, -0.0381; for RRIRPRPPRLPRPRPRPPDIPRP, -0.602. For RRIRKRPPRLPRPRPRPKMNPRP, the “shrunken log2 fold change” value stood at 0.2. The result for RRIRWRPPRLPRPRPRPNHSPRP reads -0.409; that for RRIRKRPPRLPRPRPRPIFMPRP, 0.0293. The result for RRIRFRPPRLPRPRPRPEMTPRP reads -0.328; that for RRIRYRPPRLPRPRPRPCWSPRP, -0.768; that for RRIRMRPPRLPRPRPRPSDSPRP, 0.0495. For RRIRYRPPRLPRPRPRPPQTPRP the value was -0.314; for RRIRRRPPRLPRPRPRPTNIPRP, -0.304.

Regarding RRIRHRPPRLPRPRPRPSPWPRP, the “shrunken log2 fold change” value was determined as 0.0405. On to RRIRDRPPRLPRPRPRPDDWPRP, for which the “shrunken log2 fold change” value turned out to be 1.08. The result for RRIRIRPPRLPRPRPRPKPKPRP reads 0.161; that for RRIRRRPPRLPRPRPRPDYSPRP, -0.263; that for RRIRDRPPRLPRPRPRPYEQPRP, -0.0135. Regarding RRIRSRPPRLPRPRPRPGNPPRP, the “shrunken log2 fold change” value was determined as 0.0113. For RRIRTRPPRLPRPRPRPSFNPRP the value was -0.507; for RRIRSRPPRLPRPRPRPCSVPRP, 0.044. The result for RRIRARPPRLPRPRPRPESDPRP reads 1.17; that for RRIRERPPRLPRPRPRPMGVPRP, 0.22; that for RRIRGRPPRLPRPRPRPYSPPRP, -0.528. The result for RRIRKRPPRLPRPRPRPCAAPRP reads 0.421.

Turning to RRIRRRPPRLPRPRPRPRWRPRP, the “shrunken log2 fold change” value came to 0.832.

Consider RRIRFRPPRLPRPRPRPFMYPRP, for which the “shrunken log2 fold change” value is -0.742.

On to RRIRRRPPRLPRPRPRPFQQPRP, for which the “shrunken log2 fold change” value worked out at 0.282.

Regarding RRIRCRPPRLPRPRPRPRQKPRP, the “shrunken log2 fold change” value was 0.466.

Regarding RRIRERPPRLPRPRPRPNQVPRP, the “shrunken log2 fold change” value is -0.0305. The result for RRIRVRPPRLPRPRPRPDVPPRP reads -0.0976; that for RRIRMRPPRLPRPRPRPINSPRP, -0.142; that for RRIRFRPPRLPRPRPRPCLSPRP, -0.0617. For RRIRQRPPRLPRPRPRPHPKPRP the value was -0.0646; for RRIRFRPPRLPRPRPRPVAGPRP, 0.128; for RRIRWRPPRLPRPRPRPTYRPRP, 0.146. In the case of RRIRMRPPRLPRPRPRPIRLPRP, the “shrunken log2 fold change” value amounted to 0.0373.

For the sequence RRIRHRPPRLPRPRPRPDNGPRP, the “shrunken log2 fold change” value was -0.00804.

Take RRIRMRPPRLPRPRPRPWQQPRP: the “shrunken log2 fold change” value was -0.0113. For RRIRWRPPRLPRPRPRPGENPRP the value was -0.0316; for RRIRGRPPRLPRPRPRPALAPRP, 1.17. For RRIRKRPPRLPRPRPRPDIFPRP the value was -0.178. For RRIRSRPPRLPRPRPRPHHAPRP the value was -0.41. Take RRIRYRPPRLPRPRPRPPQQPRP: the “shrunken log2 fold change” value stood at 0.0729. For RRIRDRPPRLPRPRPRPVNDPRP the value was -0.163; for RRIRARPPRLPRPRPRPMCNPRP, 0.186.
